Target: fkb1a_human FKBP1A (UniProt P62942)
Sequence (P62942 whole entry): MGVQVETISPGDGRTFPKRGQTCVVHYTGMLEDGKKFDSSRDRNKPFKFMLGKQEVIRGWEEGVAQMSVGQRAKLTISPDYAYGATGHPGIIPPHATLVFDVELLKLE

Substance: Ryanodine receptor 1 (Oryctolagus cuniculus (Rabbit)), P11716 S2843D
- effect of a mutation on the interaction: disrupting interaction
